In PMC2735845 (Journal of molecular biology, 2009):

Tests used:
[1] = target: T1, E. coli single-stranded DNA-binding protein (SSB), wild type (E. coli, UniProt P0AGE0 1-178); assay: cell-based or functional assay
[2] = target: T1, E. coli single-stranded DNA-binding …; assay: ammonium sulfate co-precipitation

Binder | SSB binding in solution relative to wild type [2] [%] | also measured
E. coli RecQ (wild type, full-length, hexahistidine-tagged) (enzyme) not shown |  | Fold stimulation of RecQ helicase activity by SSB [1]: 9.7 fold
E. coli RecQ S421A (enzyme) not shown | ~40 | 
E. coli RecQ R448A (enzyme) not shown |  | co-precipitation with SSB relative to wild-type RecQ [2]: ~80%
E. coli RecQ Q428A (enzyme) not shown | ~3 | 
